Assay results: article PMC2556353, “Identification of direct regulatory targets of the transcription factor Sox10 based on function and conservation”

B1: SOD3 probe (WT) (dsDNA)
DNA 1: GAAGAGGCACAATGGTCTCT
DNA 2: ACCATTGTGCCTCTTC
B2: SOD3 mutated probe (MT) (dsDNA)
DNA 1: GAAGAGGCAGACTGGTCTCT
DNA 2: AGAGACCAGTCTGCCTCTTC

Key:
[1] = molecular target: T1, GST-SOX10 HMG (mouse, UniProt Q04888 80-185); test: EMSA; specific unlabeled probe abrogates the complex; 10 mM HEPES pH 8.0, 5% glycerol, 50 mM NaCl, 5 mM MgCl2, 2 mM DTT, 0.1 mM EDTA, 4 ug BSA, 2 ug poly(dIdC) in 35 ul; 25 min at room temperature; 5% PAGE in 1x TBE; settings: protein: recombinant; tags: N-terminal GST (pGEX-4T-1); label: 32P end label (probe); 3' overhang 4 nt on strand 1 as printed (20-mer/16-mer)
T1 sequence (Q04888 80-185): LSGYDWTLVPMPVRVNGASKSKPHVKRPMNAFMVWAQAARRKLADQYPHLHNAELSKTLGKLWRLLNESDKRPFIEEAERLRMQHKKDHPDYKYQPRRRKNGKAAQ

[2] = molecular target: T1, GST-SOX10 HMG; test: competition; unlabeled excess against labeled WT SOD3 probe; did not effectively compete; 10 mM HEPES pH 8.0, 5% glycerol, 50 mM NaCl, 5 mM MgCl2, 2 mM DTT, 0.1 mM EDTA, 4 ug BSA, 2 ug poly(dIdC) in 35 ul; 25 min at room temperature; 5% PAGE in 1x TBE; settings: protein: recombinant; tags: N-terminal GST (pGEX-4T-1); blunt

Row | Binder | binding result [1] | binding result [2]
1 | B1 | binds | –
2 | B2 | – | no binding
